Earlier results in article PMC7116363 (Biomaterials, 2020).

Legend:
[1] = tested on: L cells; details: in mice
[2] = not given; remark: listed apart in the source

## CCC(=O)O [propionate]
[1]
  effective concentration of propionate needed to exert an effect on L cells: 140 mmol/L

## liraglutide
other
  circulating levels after oral co-administration with SNAC: failed to provide circulating levels

## semaglutide
[2]
  half-life: 165 h
